How the values were obtained:
HeLa Kyoto [1] = assay: melting temperature (median over replicates), in situ; higher = more thermally stable
HeLa Kyoto [2] = assay: solubility change mitosis vs G1/S (difference of NP-40 vs SDS log2 ratios) (log2 ratio difference); higher = more soluble in mitosis
HeLa Kyoto [3] = assay: thermal stability score vs G1/S (z-score of summed log2 fold changes over temperatures); higher = more thermally stable than in G1/S
HeLa Kyoto [4] = assay: solubility in G1/S (NP-40 vs SDS abundance) (log2 ratio); higher = more soluble; conditions: cell cycle stage: G1/S
[5] = cell cycle stage: early G1 (4.5 h after nocodazole release)
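Wherever melting temperature (median over replicates), in situ is given: HeLa Kyoto cells synchronized by double thymidine or nocodazole block, proteins quantified by TMT10plex mass spectrometry, three independent biological replicates.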
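Wherever solubility change mitosis vs G1/S (difference of NP-40 vs SDS log2 ratios) is given: synchronized HeLa Kyoto cells (double thymidine block for G1/S, nocodazole release for mitosis), protein amounts in NP-40 versus SDS lysates quantified by mass spectrometry, three biological replicates.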
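Wherever solubility in G1/S (NP-40 vs SDS abundance) is given: HeLa Kyoto cells arrested at G1/S by double thymidine block, proteins quantified by TMT10plex mass spectrometry in mild NP-40 versus SDS extracts, three biological replicates.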
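Wherever thermal stability score vs G1/S (z-score of summed log2 fold changes over temperatures) is given: synchronized HeLa Kyoto cells, proteins quantified by TMT10plex mass spectrometry, three biological replicates, mitosis taken 0.5 h after nocodazole release, G1/S directly after double thymidine block.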

| Substance | melting temperature (HeLa Kyoto [1]; cell cycle stage: G1/S) [°C] | melting temperature (HeLa Kyoto [1]; cell cycle stage: mitosis) [°C] | solubility change mitosis (log2) (HeLa Kyoto [2]) | thermal stability score (HeLa Kyoto [3]; [5]) | thermal stability score (HeLa Kyoto [3]; cell cycle stage: mitosis) | solubility in G1/S (log2) (HeLa Kyoto [4]) |
| --- | --- | --- | --- | --- | --- | --- |
| MPGETEEPRPPEQQDQEGGEAAKAAPEEPQQRPPEAVAAAPAGTTSSRVLRGGRDRGRAAAAAAAAAVSRRRKAEYPRRRRSSPSARPPDVPGQQPQAAKSPSPVQGKKSPRLLCIEKVTTDKDPKEEKEEEDDSALPQEVSIAASRPSRGWRSSRTSVSRHRDTENTRSSRSKTGSLQLICKSEPNTDQLDYDVGEEHQSPGGISSEEEEEEEEEMLISEEEIPFKDDPRDETYKPHLERETPKPRRKSGKVKEEKEKKEIKVEVEVEVKEEENEIREDEEPPRKRGRRRKDDKSPRLPKRRKKPPIQYVRCEMEGCGTVLAHPRYLQHHIKYQHLLKKKYVCPHPSCGRLFRLQKQLLRHAKHHTDQRDYICEYCARAFKSSHNLAVHRMIHTGEKPLQCEICGFTCRQKASLNWHMKKHDADSFYQFSCNICGKKFEKKDSVVAHKAKSHPEVLIAEALAANAGALITSTDILGTNPESLTQPSDGQGLPLLPEPLGNSTSGECLLLEAEGMSKSYCSGTERVSLMADGKIFVGSGSSGGTEGLVMNSDILGATTEVLIEDSDSAGP [ZFP91] | 51.9 | 53.2 | 0.0732 | 2.06 | 1.42 | -0.401 |
| MSAAGLLAPAPAQAGAPPAPEYYPEEDEELESAEDDERSCRGRESDEDTEDASETDLAKHDEEDYVEMKEQMYQDKLASLKRQLQQLQEGTLQEYQKRMKKLDQQYKERIRNAELFLQLETEQVERNYIKEKKAAVKEFEDKKVELKENLIAELEEKKKMIENEKLTMELTGDSMEVKPIMTRKLRRRPNDPVPIPDKRRKPAPAQLNYLLTDEQIMEDLRTLNKLKSPKRPASPSSPEHLPATPAESPAQRFEARIEDGKLYYDKRWYHKSQAIYLESKDNQKLSCVISSVGANEIWVRKTSDSTKMRIYLGQLQRGLFVIRRRSAA [SUDS3] | 49 | 50.6 | 0.238 | 0.216 | 0.399 | 0.341 |
| MRLKIGFILRSLLVVGSFLGLVVLWSSLTPRPDDPSPLSRMREDRDVNDPMPNRGGNGLAPGEDRFKPVVPWPHVEGVEVDLESIRRINKAKNEQEHHAGGDSQKDIMQRQYLTFKPQTFTYHDPVLRPGILGNFEPKEPEPPGVVGGPGEKAKPLVLGPEFKQAIQASIKEFGFNMVASDMISLDRSVNDLRQEECKYWHYDENLLTSSVVIVFHNEGWSTLMRTVHSVIKRTPRKYLAEIVLIDDFSNKEHLKEKLDEYIKLWNGLVKVFRNERREGLIQARSIGAQKAKLGQVLIYLDAHCEVAVNWYAPLVAPISKDRTICTVPLIDVINGNTYEIIPQGGGDEDGYARGAWDWSMLWKRVPLTPQEKRLRKTKTEPYRSPAMAGGLFAIEREFFFELGLYDPGLQIWGGENFEISYKIWQCGGKLLFVPCSRVGHIYRLEGWQGNPPPIYVGSSPTLKNYVRVVEVWWDEYKDYFYASRPESQALPYGDISELKKFREDHNCKSFKWFMEEIAYDITSHYPLPPKNVDWGEIRGFETAYCIDSMGKTNGGFVELGPCHRMGGNQLFRINEANQLMQYDQCLTKGADGSKVMITHCNLNEFKEWQYFKNLHRFTHIPSGKCLDRSEVLHQVFISNCDSSKTTQKWEMNNIHSV [GALNT7] | 53.7 | 53.8 | -0.135 | 0.0877 | 0.865 | -0.206 |
| MKRPKLKKASKRMTCHKRYKIQKKVREHHRKLRKEAKKRGHKKPRKDPGVPNSAPFKEALLREAELRKQRLEELKQQQKLDRQKELEKKRKLETNPDIKPSNVEPMEKEFGLCKTENKAKSGKQNSKKLYCQELKKVIEASDVVLEVLDARDPLGCRCPQVEEAIVQSGQKKLVLILNKSDLVPKENLESWLNYLKKELPTVVFRASTKPKDKGKITKRVKAKKNAAPFRSEVCFGKEGLWKLLGGFQETCSKAIRVGVIGFPNVGKSSIINSLKQEQMCNVGVSMGLTRSMQVVPLDKQITIIDSPSFIVSPLNSSSALALRSPASIEVVKPMEAASAILSQADARQVVLKYTVPGYRNSLEFFTVLAQRRGMHQKGGIPNVEGAAKLLWSEWTGASLAYYCHPPTSWTPPPYFNESIVVDMKSGFNLEELEKNNAQSIRAIKGPHLANSILFQSSGLTNGIIEEKDIHEELPKRKERKQEEREDDKDSDQETVDEEVDENSSGMFAAEETGEALSEETTAGEQSTRSFILDKIIEEDDAYDFSTDYV [GNL3] | 45.3 | 50.2 | 0.867 | 5.07 | 8.85 | -1.72 |
| MDPFLVLLHSVSSSLSSSELTELKFLCLGRVGKRKLERVQSGLDLFSMLLEQNDLEPGHTELLRELLASLRRHDLLRRVDDFEAGAAAGAAPGEEDLCAAFNVICDNVGKDWRRLARQLKVSDTKIDSIEDRYPRNLTERVRESLRIWKNTEKENATVAHLVGALRSCQMNLVADLVQEVQQARDLQNRSGAMSPMSWNSDASTSEAS [FADD] | 52.3 | 49.4 | -0.0735 | -0.0741 | 1.4 | -0.257 |
| MEATGTDEVDKLKTKFISAWNNMKYSWVLKTKTYFSRNSPVLLLGKCYHFKYEDEDKTLPAESGCTIEDHVIAGNVEEFRKDFISRIWLTYREEFPQIEGSALTTDCGWGCTLRTGQMLLAQGLILHFLGRAWTWPDALNIENSDSESWTSHTVKKFTASFEASLSGEREFKTPTISLKETIGKYSDDHEMRNEVYHRKIISWFGDSPLALFGLHQLIEYGKKSGKKAGDWYGPAVVAHILRKAVEEARHPDLQGITIYVAQDCTVYNSDVIDKQSASMTSDNADDKAVIILVPVRLGGERTNTDYLEFVKGILSLEYCVGIIGGKPKQSYYFAGFQDDSLIYMDPHYCQSFVDVSIKDFPLETFHCPSPKKMSFRKMDPSCTIGFYCRNVQDFKRASEEITKMLKFSSKEKYPLFTFVNGHSRDYDFTSTTTNEEDLFSEDEKKQLKRFSTEEFVLL [ATG4C] | 50.6 | 50.3 | 0.268 | -0.279 | 0.138 | -1.32 |
| HTT | 50.6 | 50.7 | -0.0881 | -0.714 | -1.14 | -0.145 |
| RAB35 | 56.3 | 56.2 | 0.0226 | -0.529 | -1.17 | -0.0302 |
| MDGTRTSLDIEEYSDTEVQKNQVLTLEEWQDKWVNGKTAFHQEQGHQLLKKHLDTFLKGKSGLRVFFPLCGKAVEMKWFADRGHSVVGVEISELGIQEFFTEQNLSYSEEPITEIPGTKVFKSSSGNISLYCCSIFDLPRTNIGKFDMIWDRGALVAINPGDRKCYADTMFSLLGKKFQYLLCVLSYDPTKHPGPPFYVPHAEIERLFGKICNIRCLEKVDAFEERHKSWGIDCLFEKLYLLTEK [TPMT] | 54 | 54 | -0.18 | -0.85 | -0.417 | 0.0374 |
| MRPGAPGPLWPLPWGALAWAVGFVSSMGSGNPAPGGVCWLQQGQEATCSLVLQTDVTRAECCASGNIDTAWSNLTHPGNKINLLGFLGLVHCLPCKDSCDGVECGPGKACRMLGGRPRCECAPDCSGLPARLQVCGSDGATYRDECELRAARCRGHPDLSVMYRGRCRKSCEHVVCPRPQSCVVDQTGSAHCVVCRAAPCPVPSSPGQELCGNNNVTYISSCHMRQATCFLGRSIGVRHAGSCAGTPEEPPGGESAEEEENFV [FSTL3] | 51.7 | 54.8 | 0.0887 | 2.88 | 2.67 | -0.141 |

— the supplement of paper PMC5998384
